Reference: paper PMC4254552 (Developmental cell, 2014)
Blank lines part the entries; values can stand above or below the binder they belong to.

Key:
[1] = target: T1, HIM-3 part of the chimeric protein HIM-3:HTP-3 motif #4 (C. elegans, UniProt G5EBG0 1-276); test: crystal structure
T1 sequence (looked up): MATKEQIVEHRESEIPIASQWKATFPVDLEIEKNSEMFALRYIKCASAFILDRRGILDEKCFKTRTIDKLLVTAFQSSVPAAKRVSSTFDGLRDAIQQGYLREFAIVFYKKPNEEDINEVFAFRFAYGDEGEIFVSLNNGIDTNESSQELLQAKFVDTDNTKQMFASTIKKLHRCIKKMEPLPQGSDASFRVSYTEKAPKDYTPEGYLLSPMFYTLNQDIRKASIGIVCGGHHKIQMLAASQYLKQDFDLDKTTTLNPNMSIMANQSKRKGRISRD

HIM-3-6His = target: T2, HIM-3-6His (C. elegans, UniProt G5EBG0 1-291)
T2 sequence (looked up): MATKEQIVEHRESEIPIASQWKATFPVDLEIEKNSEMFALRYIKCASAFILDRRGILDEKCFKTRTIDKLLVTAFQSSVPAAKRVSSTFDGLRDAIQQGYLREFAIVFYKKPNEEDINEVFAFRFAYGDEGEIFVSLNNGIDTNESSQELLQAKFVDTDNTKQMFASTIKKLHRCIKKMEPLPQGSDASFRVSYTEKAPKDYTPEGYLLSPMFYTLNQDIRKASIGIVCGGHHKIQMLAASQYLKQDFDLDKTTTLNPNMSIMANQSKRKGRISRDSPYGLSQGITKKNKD

binding result [1]: binds
Binder: RHYGRVSSILDVAGS (peptide, UniProt O01820 649-663, looked up) [HTP-3 motif #4 (residues 649-663) as placed in the HIM-3 chimera]

stoichiometry N (HIM-3-6His): 1 HTP-1 per HIM-3
B1: HTP-1 (untagged, co-expressed) (natural protein, C. elegans, UniProt Q20305 1-352, looked up)
chain: MAPLETIYDESLNKSADSIDDKKWSKLFPRIVSDPDRSSNFMTRAIYVAFSAVLRNRNILGQEYFTKNYITEKLKCMTLCFRNPRSNQIAQLLRNAGDATKDGFLKEVSLVITNNEGDLEAIEVFSMKFIYFENGGVVARLSTDKNGQEDPHFAKLAQLVYEGGDSVRDQMVTIVRSVQFLCTKVLEPLPEEFTANFRLEYTNDAPSNFRIDGFEDSSTFYTLPDDIQSATIGHLRPGCHAANMECWSMLMSDSYEAELTLKRHLDKVSDRHGFNPVNVLYKSFNSEDSDTSLSQATTESVNDQGGNETSPVDDITESLEKAQMSPIQTRPTTRRGADGSKTRSSPYSRSCK

stoichiometry N (HIM-3-6His): 1 HTP-2 per HIM-3
B2: HTP-2 (co-expressed; tag not told) (natural protein, C. elegans, UniProt Q95XC8 1-352, looked up)
chain: MAPLENNYNESLNKSKDAIDDKTWSKLFPSIVSDPDRSSNFMIRAIYVVFSAVLRQRNILEKEYFSKNYITENLSCMTLSFKNLRAHQIAQLLRAAGDATKDGFLKEISLVVTEHDGDVEAIEVFSMKFIYFENGGVVARLSTDNNDQEDPHFAELAQLRYEGAESVRDQMVTIVRSVQFLCTKVLEPLPAEFTANFRLKYTNDAPSNFRIDGFDDSSTFYTLPDGIQSVTIGHLRPGHHAAHMQCWSKSMSDSYAAELTLKGHLDKVSDMYAFNPVNVLYKSFNSEDTDPGLSQDTTESANDQGGNVTSPVDNITDSLEKTQMSPIKMRPTTRRGADDSKTRSSPYSRSRK
